Laboratory results from patent US20120034160A1 (AbbVie / Abbott, published 2012).

T1: Recombinant Human IL-17 (human, UniProt Q16552 20-155, limits assumed)
T1 construct: bought reagent
T1 sequence (looked up): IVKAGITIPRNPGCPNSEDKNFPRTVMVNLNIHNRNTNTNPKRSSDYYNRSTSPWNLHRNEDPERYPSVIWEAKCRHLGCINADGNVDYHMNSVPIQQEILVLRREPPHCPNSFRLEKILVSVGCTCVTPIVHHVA


Columns and labels:
Recombinant Human IL-1β = target: T2, Recombinant Human IL-1β (human, UniProt P01584 117-269); assay: Biacore SPR; C-terminal VD
T2 construct: bought reagent; also called IL-1B
Description: (§1) The BIACORE assay (Biacore, Inc, Piscataway, N.J.) determines the affinity of antibodies or DVD-Ig with kinetic measurements of on-rate and off-rate constants. Binding of antibodies or DVD-Ig to a target antigen (for example, a purified recombinant target antigen) was determined by surface plasmon resonance-based measurements with a Biacore® 1000 or 3000 instrument (Biacore® AB, Uppsala, Sweden) using running HBS-EP (10 mM HEPES [pH 7.4], 150 mM NaCl, 3 mM EDTA, and 0.005% surfactant P20) at 25° C. All chemicals were obtained from Biacore® AB (Uppsala, Sweden) or otherwise from a different source as described in the text. For example, approximately 5000 RU of goat anti-mouse IgG, (Fcγ), fragment specific polyclonal antibody (Pierce Biotechnology Inc, Rockford, Ill.) diluted in 10 mM sodium acetate (pH 4.5) was directly immobilized across a CM5 research grade biosensor chip using a standard amine coupling kit according to manufacturer's instructions and procedures at 25 μg/ml. Unreacted moieties on the biosensor surface were blocked with ethanolamine. Modified carboxymethyl dextran surface in flowcell 2 and 4 was used as a reaction surface. Unmodified carboxymethyl dextran without goat anti-mouse IgG in flow cell 1 and 3 was used as the reference surface. For kinetic analysis, rate equations derived from the 1:1 Langmuir binding model were fitted simultaneously to association and dissociation phases of all eight injections (using global fit analysis) with the use of Biaevaluation 4.0.1 software. Purified antibodies or DVD-Ig were diluted in HEPES-buffered saline for capture across goat anti-mouse IgG specific reaction surfaces. Antibodies or DVD-Ig to be captured as a ligand (25 μg/ml) were injected over reaction matrices at a flow rate of 5 μl/min. The association and dissociation rate constants, kₒₙ (M⁻¹s⁻¹) and koff (s⁻¹) were determined under a continuous flow rate of 25 μl/min. Rate constants were derived by making kinetic binding measurements at different antigen concentrations ranging from 10−200 nM. The equilibrium dissociation constant (M) of the reaction between antibodies or DVD-Igs and the target antigen was then calculated from the kinetic rate constants by the following formula: KD=koff/kₒₙ. Binding was recorded as a function of time and kinetic rate constants are calculated.

Recombinant Human IL-17 = target: T1, Recombinant Human IL-17; assay: Biacore SPR; N-terminal VD
Description: as §1

Row | Binder | Kd (Recombinant Human IL-1β) | koff (Recombinant Human IL-1β) | kon (Recombinant Human IL-1β) | Kd (Recombinant Human IL-17) | koff (Recombinant Human IL-17) | kon (Recombinant Human IL-17)
1 | DVD1596 (bispecific antibody, human IgG1, kappa, DVD-Ig, outer AB273, inner AB271, linker set 2; V1 wt hIgG1, V2 kappa; also called DVD1596H; DVD1596L) heavy: not shown light: DIQMTQSPSSLSASVGDRVTITCRASSGIISYIDWFQQKPGKAPKRLIYATFDLASGVPSRFSGSGSGTDYTLTISSLQPEDFATYYCRQVGSYPETFGQGTKLEIKRTVAAPSVFIFPPDTVVTQSPAFLSVTPGEKVTITCITSTDIDVDMNWYQQKPDQPPKLLISQGNTLRPGVPSRFSSSGSGTDFTFTISSLEAEDAATYYCLQSDNLPLTFGQGTKLEIKRTVAAPSVFIFPPSDEQLKSGTASVVCLLNNFYPREAKVQWKVDNALQSGNSQESVTEQDSKDSTYSLSSTLTLSKADYEKHKVYACEVTHQGLSSPVTKSFNRGEC | 0.51 nM | 0.00036 s⁻¹ | 700000 M⁻¹ s⁻¹ | 0.0033 nM | 1.3e-05 s⁻¹ | 4.1e+06 M⁻¹ s⁻¹
2 | DVD1600 (bispecific antibody, human IgG1, kappa, V1 wt hIgG1, V2 kappa; also called DVD1600H; DVD1600L) heavy: not shown light: EIVLTQSPDFQSVTPKEKVTITCRASQDIGSELHWYQQKPDQPPKLLIKYASHSTSGVPSRFSGSGSGTDFTLTINGLEAEDAGTYYCHQTDSLPYTFGPGTKVDIKRTVAAPSVFIFPPDIQMTQSPSSLSASVGDRVTITCRASGNIHNYLTWYQQTPGKAPKLLIYNAKTLADGVPSRFSGSGSGTDYTFTISSLQPEDIATYYCQHFWSIPYTFGQGTKLQITRTVAAPSVFIFPPSDEQLKSGTASVVCLLNNFYPREAKVQWKVDNALQSGNSQESVTEQDSKDSTYSLSSTLTLSKADYEKHKVYACEVTHQGLSSPVTKSFNRGEC | 0.55 nM | 9.4e-05 s⁻¹ | 170000 M⁻¹ s⁻¹ | ≤ 0.0038 nM | < 1e-06 s⁻¹ | 2.8e+06 M⁻¹ s⁻¹
3 | DVD1610 (bispecific antibody, human IgG1, kappa, V1 wt hIgG1, V2 kappa; also called DVD1610H; DVD1610L) heavy: not shown light: EIVLTQSPDFQSVTPKEKVTITCRASQNIGSELHWYQQKPDQSPKLLIKYASHSISGVPSRFSGSGSGTDFTLTINGLEAEDAATYYCHQSDTLPHTFGQGTKVDIKRTVAAPSVFIFPPDIQMTQSPSSLSASVGDRVTITCRASGNIHNYLTWYQQTPGKAPKLLIYNAKTLADGVPSRFSGSGSGTDYTFTISSLQPEDIATYYCQHFWSIPYTFGQGTKLQITRTVAAPSVFIFPPSDEQLKSGTASVVCLLNNFYPREAKVQWKVDNALQSGNSQESVTEQDSKDSTYSLSSTLTLSKADYEKHKVYACEVTHQGLSSPVTKSFNRGEC | 0.25 nM | 7.3e-05 s⁻¹ | 290000 M⁻¹ s⁻¹ | 0.017 nM | 5.7e-05 s⁻¹ | 3.5e+06 M⁻¹ s⁻¹
4 | DVD1602 (bispecific antibody, human IgG1, kappa, V1 wt hIgG1, V2 kappa; also called DVD1602H; DVD1602L) heavy: not shown light: EIVLTQSPDFQSVTPKEKVTITCRASQDIGSELHWYQQKPDQPPKLLIKYASHSTSGVPSRFSGSGSGTDFTLTINGLEAEDAGTYYCHQTDSLPYTFGPGTKVDIKRTVAAPSVFIFPPDIQMTQSPSSLSASVGDRVTITCRASGNIHNYLTWYQQTPGKAPKLLIYNAKTLADGVPSRFSGSGSGTDYTFTISSLQPEDIATYYCQHFWSIPYTFGQGTKLQITRTVAAPSVFIFPPSDEQLKSGTASVVCLLNNFYPREAKVQWKVDNALQSGNSQESVTEQDSKDSTYSLSSTLTLSKADYEKHKVYACEVTHQGLSSPVTKSFNRGEC | 0.18 nM | 2.3e-05 s⁻¹ | 130000 M⁻¹ s⁻¹ | 0.0051 nM | 1.4e-05 s⁻¹ | 2.7e+06 M⁻¹ s⁻¹
5 | DVD1594 (bispecific antibody, human IgG1, kappa, DVD-Ig, outer AB273, inner AB270, linker set 2; V1 wt hIgG1, V2 kappa; also called DVD1594H; DVD1594L) heavy: not shown light: DIQMTQSPSSLSASVGDRVTITCRASSGIISYIDWFQQKPGKAPKRLIYATFDLASGVPSRFSGSGSGTDYTLTISSLQPEDFATYYCRQVGSYPETFGQGTKLEIKRTVAAPSVFIFPPDTQVTQSPSSLSASVGDRVTITCITSTDIDVDMNWYQQKPGKPPKLLISQGNTLRPGVPSRFSSSGSGTDFTFTISSLQPEDFATYYCLQSDNLPLTFGQGTKLEIKRTVAAPSVFIFPPSDEQLKSGTASVVCLLNNFYPREAKVQWKVDNALQSGNSQESVTEQDSKDSTYSLSSTLTLSKADYEKHKVYACEVTHQGLSSPVTKSFNRGEC | 0.6 nM | 0.00043 s⁻¹ | 710000 M⁻¹ s⁻¹ | 0.0056 nM | 2.3e-05 s⁻¹ | 4.2e+06 M⁻¹ s⁻¹
6 | DVD1598 (bispecific antibody, human IgG1, kappa, DVD-Ig, outer AB273, inner AB272, linker set 2; V1 wt hIgG1, V2 kappa; also called DVD1598H; DVD1598L) heavy: not shown light: DIQMTQSPSSLSASVGDRVTITCRASSGIISYIDWFQQKPGKAPKRLIYATFDLASGVPSRFSGSGSGTDYTLTISSLQPEDFATYYCRQVGSYPETFGQGTKLEIKRTVAAPSVFIFPPETTVTQSPSSLSASVGDRVTITCITSTDIDVDMNWYQQKPGKPPKLLISQGNTLRPGVPSRFSSSGSGTDFTFTISSLQPEDFATYYCLQSDNLPLTFGQGTKLEIKRTVAAPSVFIFPPSDEQLKSGTASVVCLLNNFYPREAKVQWKVDNALQSGNSQESVTEQDSKDSTYSLSSTLTLSKADYEKHKVYACEVTHQGLSSPVTKSFNRGEC | 1.2 nM | 0.00074 s⁻¹ | 630000 M⁻¹ s⁻¹ | 0.0051 nM | 1.8e-05 s⁻¹ | 3.5e+06 M⁻¹ s⁻¹

The next lines start with the values.

Row | Kd (Recombinant Human IL-1β) | koff (Recombinant Human IL-1β) | kon (Recombinant Human IL-1β) | Kd (Recombinant Human IL-17) | koff (Recombinant Human IL-17) | kon (Recombinant Human IL-17) | Binder
7 | 0.29 nM | 0.00037 s⁻¹ | 1.3e+06 M⁻¹ s⁻¹ | 0.0026 nM | 9.7e-06 s⁻¹ | 3.8e+06 M⁻¹ s⁻¹ | DVD1604 (bispecific antibody, human IgG1, kappa, DVD-Ig, outer AB274, inner AB270, linker set 2; V1 wt hIgG1, V2 kappa; also called DVD1604H; DVD1604L) heavy: not shown light: EIVLTQSPDFQSVTPKEKVTITCRASQDIGSELHWYQQKPDQPPKLLIKYASHSTSGVPSRFSGSGSGTDFTLTINGLEAEDAGTYYCHQTDSLPYTFGPGTKVDIKRTVAAPSVFIFPPDTQVTQSPSSLSASVGDRVTITCITSTDIDVDMNWYQQKPGKPPKLLISQGNTLRPGVPSRFSSSGSGTDFTFTISSLQPEDFATYYCLQSDNLPLTFGQGTKLEIKRTVAAPSVFIFPPSDEQLKSGTASVVCLLNNFYPREAKVQWKVDNALQSGNSQESVTEQDSKDSTYSLSSTLTLSKADYEKHKVYACEVTHQGLSSPVTKSFNRGEC
8 | 0.37 nM | 0.00056 s⁻¹ | 1.5e+06 M⁻¹ s⁻¹ | 0.0026 nM | 1.2e-05 s⁻¹ | 4.8e+06 M⁻¹ s⁻¹ | DVD1608 (bispecific antibody, human IgG1, kappa, DVD-Ig, outer AB274, inner AB272, linker set 2; V1 wt hIgG1, V2 kappa; also called DVD1608H; DVD1608L) heavy: not shown light: EIVLTQSPDFQSVTPKEKVTITCRASQDIGSELHWYQQKPDQPPKLLIKYASHSTSGVPSRFSGSGSGTDFTLTINGLEAEDAGTYYCHQTDSLPYTFGPGTKVDIKRTVAAPSVFIFPPETTVTQSPSSLSASVGDRVTITCITSTDIDVDMNWYQQKPGKPPKLLISQGNTLRPGVPSRFSSSGSGTDFTFTISSLQPEDFATYYCLQSDNLPLTFGQGTKLEIKRTVAAPSVFIFPPSDEQLKSGTASVVCLLNNFYPREAKVQWKVDNALQSGNSQESVTEQDSKDSTYSLSSTLTLSKADYEKHKVYACEVTHQGLSSPVTKSFNRGEC
9 | 0.32 nM | 0.00044 s⁻¹ | 1.4e+06 M⁻¹ s⁻¹ | 0.00067 nM | 3e-06 s⁻¹ | 4.4e+06 M⁻¹ s⁻¹ | DVD1606 (bispecific antibody, human IgG1, kappa, DVD-Ig, outer AB274, inner AB271, linker set 2; V1 wt hIgG1, V2 kappa; also called DVD1606H; DVD1606L) heavy: not shown light: EIVLTQSPDFQSVTPKEKVTITCRASQDIGSELHWYQQKPDQPPKLLIKYASHSTSGVPSRFSGSGSGTDFTLTINGLEAEDAGTYYCHQTDSLPYTFGPGTKVDIKRTVAAPSVFIFPPDTVVTQSPAFLSVTPGEKVTITCITSTDIDVDMNWYQQKPDQPPKLLISQGNTLRPGVPSRFSSSGSGTDFTFTISSLEAEDAATYYCLQSDNLPLTFGQGTKLEIKRTVAAPSVFIFPPSDEQLKSGTASVVCLLNNFYPREAKVQWKVDNALQSGNSQESVTEQDSKDSTYSLSSTLTLSKADYEKHKVYACEVTHQGLSSPVTKSFNRGEC
10 | 0.15 nM | 2.5e-05 s⁻¹ | 160000 M⁻¹ s⁻¹ | 0.016 nM | 5.1e-05 s⁻¹ | 3.2e+06 M⁻¹ s⁻¹ | DVD1612 (bispecific antibody, human IgG1, kappa, V1 wt hIgG1, V2 kappa; also called DVD1612H; DVD1612L) heavy: not shown light: EIVLTQSPDFQSVTPKEKVTITCRASQNIGSELHWYQQKPDQSPKLLIKYASHSISGVPSRFSGSGSGTDFTLTINGLEAEDAATYYCHQSDTLPHTFGQGTKVDIKRTVAAPSVFIFPPDIQMTQSPSSLSASVGDRVTITCRASGNIHNYLTWYQQTPGKAPKLLIYNAKTLADGVPSRFSGSGSGTDYTFTISSLQPEDIATYYCQHFWSIPYTFGQGTKLQITRTVAAPSVFIFPPSDEQLKSGTASVVCLLNNFYPREAKVQWKVDNALQSGNSQESVTEQDSKDSTYSLSSTLTLSKADYEKHKVYACEVTHQGLSSPVTKSFNRGEC
